The chains are these.
B1: DARPin D1 H118R (protein)
chain: MRGSHHHHHHGSDLGKKLLEAARAGQDDEVRILMANGADVNATDASGLTPLHLAATYGHLEIVEVLLKHGADVNAIDIMGSTPLHLAALIGHLEIVEVLLKHGADVNAVDTWGDTPLRLAAIMGHLEIVEVLLKHGADVNAQDKFGKTAFDISIDNGNEDLAEILQKLN
B2: DARPin D1 I32V; N74S; I76S; I78L; H118R; I122V; E127K; V131A; F150Y; I152T; N158S (protein)
chain: B1 chain with I32V, N74S, I76S, I78L, I122V, E127K, V131A, F150Y, I152T, N158S
B3: DARPin D1 I152T; N158S (protein)
chain: B1 chain with R118H, I152T, N158S
B4: DARPin D1 N158S (protein)
chain: B1 chain with R118H, N158S
B5: DARPin D1 H118R; I152T; N158S (protein)
chain: B1 chain with I152T, N158S
B6: DARPin D1 I152T (protein)
chain: B1 chain with R118H, I152T
B7: DARPin D1 I76S (protein)
chain: B1 chain with I76S, R118H
B8: DARPin D1 I32V (protein)
chain: B1 chain with I32V, R118H
B9: DARPin D1 E127K (protein)
chain: B1 chain with R118H, E127K
B10: DARPin D1 I122V (protein)
chain: B1 chain with R118H, I122V
B11: DARPin D1 N74S; I76S; I78L (protein)
chain: B1 chain with N74S, I76S, I78L, R118H
B12: DARPin D1 V131A (protein)
chain: B1 chain with R118H, V131A
B13: DARPin D1 I78L (protein)
chain: B1 chain with I78L, R118H
B14: DARPin D1 N74S (protein)
chain: B1 chain with N74S, R118H
B15: DARPin D1 F150Y (protein)
chain: B1 chain with R118H, F150Y
B16: DARPin D1 E127K; V131A (protein)
chain: B1 chain with R118H, E127K, V131A
B17: DARPin D1 F150Y; I152T; N158S (protein)
chain: B1 chain with R118H, F150Y, I152T, N158S
B18: DARPin D1 H118R; I122V (protein)
chain: B1 chain with I122V

Residue numbers refer to the chain shown, from its start. In names and notes the source's numbering stands.

The target of one assay is T1, tubulin covalently linked to a biotinylated stathmin-like peptide. The assay is described as follows: ELISA. The note with it: chain shown with the change; buffer incubation after binding; 2 nM biotinylated peptide-coupled tubulin for coating; parent: est. 0.082; read off a plot.
On to B1, for which the response was found to be 0.71 AU.
Take B2: the response came out at 0.72 AU.
The same measure, in the same setting: the result for B3 reads 0.61 AU; that for B4, 0.15 AU; that for B5, 0.75 AU.
The same measure, in the same setting: the result for B6 reads 0.48 AU.

Still in this assay, the particulars now being: chain shown with the change; buffer incubation after binding; 10 nM biotinylated peptide-coupled tubulin for coating; parent: est. 0.32; read off a plot.
B1: the response turned out to be 0.76 AU.
Still for that read-out and setting: the result for B2 reads 0.74 AU; that for B7, 0.3 AU.
On the same count and under the same terms, the figure for B8 is 0.31 AU; for B9 it is 0.42 AU.
Still for that read-out and setting: the figure for B4 is 0.59 AU; for B10 it is 0.22 AU.
On to B11, for which the response came to 0.34 AU.
Still for that read-out and setting: the figure for B12 is 0.24 AU.
Still for that read-out and setting: the figure for B13 is 0.4 AU; for B14 it is 0.28 AU; for B15 it is 0.26 AU.
On the same count and under the same terms, the result for B6 reads 0.79 AU.
For the molecule B16, the response was found to be 0.31 AU.
The same measure, in the same setting: the figure for B17 is 0.75 AU; for B18 it is 0.73 AU.

The next assay has as its target T1, tubulin covalently linked to a …. The assay is described as follows: ELISA (off-rate estimation). The note with it: chain shown with the change; incubation with 100 nM soluble tubulin to prevent rebinding; 2 nM biotinylated peptide-coupled tubulin for coating; parent: est. 0.046; read off a plot.
For the molecule B1, the response is 0.45 AU.
For the molecule B2, the response was 0.38 AU.
Take B3: the response was 0.27 AU.
The same measure, in the same setting: the result for B4 reads 0.045 AU; that for B5, 0.57 AU.
As to B6, the response is 0.075 AU.

Still in this assay, the particulars now being: chain shown with the change; incubation with 100 nM soluble tubulin to prevent rebinding; 10 nM biotinylated peptide-coupled tubulin for coating; parent: est. 0.11; read off a plot.
With B1, the response is 0.76 AU.
The same measure, in the same setting: the figure for B2 is 0.74 AU; for B7 it is 0.15 AU.
Turning to B8, the response is 0.11 AU.
Still for that read-out and setting: the figure for B9 is 0.11 AU; for B4 it is 0.14 AU.
On the same count and under the same terms, the figure for B10 is 0.12 AU; for B11 it is 0.18 AU.
Consider B12, for which the response is 0.1 AU.
As for B13, the response was 0.13 AU.
On the same count and under the same terms, the result for B14 reads 0.18 AU; that for B15, 0.13 AU; that for B6, 0.44 AU.
Consider B16, for which the response is 0.075 AU.
On the same count and under the same terms, the result for B17 reads 0.69 AU.
The same measure, in the same setting: the figure for B18 is 0.69 AU.

Values taken from article PMC4933879.
